According to PMC12404492, “The crystal structure of Thermus thermophilus UMP kinase complexed with a phosphoryl group acceptor and donor” (PLOS One, 2025):

Substrate: O=c1ccn([C@@H]2O[C@H](COP(=O)(O)O)[C@@H](O)[C@H]2O)c(=O)[nH]1
Experiment: purified protein
Assay type: biochemical, Thermus thermophilus
Conditions: without GTP, 1 mM ATP, 5 mM MgCl2, 100 mM KCl, 50 mM Tris-HCl pH 7.5, 25°C

B1: ttUMPK (UMP kinase of Thermus thermophilus HB8) (Thermus thermophilus HB8) (protein)
chain: MKYKRVLLKLSGEFLTRNGFGIEPEATQALAREIKAAYDTGVQLAIVIGAGNLWRGARQGVGMDRATADYIGMLATIMNALALQDALESLGVPTRVQTALTITQVAEPYIRRRALRHLEKERIVIFGGGTGNPFFSTDTAAALRALEVGAEVVLMAKNKVDGVYSDDPRKNPEAVRFDELTYLEVLNRGLQVMDTTAITLCMEAGLPIVVFDIFKPGALVGIIQGEKVGTLIH
notes: full-length gene in pET-11a (NdeI/BamHI), no tag mentioned; expressed in E. coli BL21(DE3), heat-treated; homohexamer by size exclusion
Q: Which Km does the source give for B1 here?
A: 46 µM

Q: And the kcat?
A: 13 s⁻¹
